Measurements reported in PMC6385319.

Target: T1, mCherry-APPL1-delta-PTB
T1 sequence (Q9UKG1 whole entry, species assumed, looked up): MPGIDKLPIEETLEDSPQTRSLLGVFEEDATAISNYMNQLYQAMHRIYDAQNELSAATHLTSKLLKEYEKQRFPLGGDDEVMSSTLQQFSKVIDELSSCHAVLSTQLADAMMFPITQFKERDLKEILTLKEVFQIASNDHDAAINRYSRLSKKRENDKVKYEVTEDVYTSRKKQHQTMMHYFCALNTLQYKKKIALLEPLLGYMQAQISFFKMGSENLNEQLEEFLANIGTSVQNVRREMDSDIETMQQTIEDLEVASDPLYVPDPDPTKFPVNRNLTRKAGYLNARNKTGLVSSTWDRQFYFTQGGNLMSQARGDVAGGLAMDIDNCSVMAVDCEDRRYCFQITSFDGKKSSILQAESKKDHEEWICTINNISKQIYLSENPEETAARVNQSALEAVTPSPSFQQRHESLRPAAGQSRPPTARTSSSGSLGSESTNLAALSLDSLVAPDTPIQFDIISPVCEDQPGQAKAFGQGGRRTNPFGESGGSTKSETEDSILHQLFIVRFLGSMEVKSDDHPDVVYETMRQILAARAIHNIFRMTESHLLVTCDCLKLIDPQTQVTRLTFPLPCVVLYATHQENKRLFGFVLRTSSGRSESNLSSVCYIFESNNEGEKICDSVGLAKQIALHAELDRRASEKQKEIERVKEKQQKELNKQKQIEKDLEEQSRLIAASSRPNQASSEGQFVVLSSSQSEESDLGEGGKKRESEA
Experiment: FRET or BRET; FRET/FLIM in live primary hippocampal neurons at DIV 7, 37 °C; GFP-Akt1 donor, mCherry fusion acceptor; donor lifetime measured in cell body and growth cone; untreated

GFP-Akt1, sequence (P31749 whole entry, the tested form may be a part): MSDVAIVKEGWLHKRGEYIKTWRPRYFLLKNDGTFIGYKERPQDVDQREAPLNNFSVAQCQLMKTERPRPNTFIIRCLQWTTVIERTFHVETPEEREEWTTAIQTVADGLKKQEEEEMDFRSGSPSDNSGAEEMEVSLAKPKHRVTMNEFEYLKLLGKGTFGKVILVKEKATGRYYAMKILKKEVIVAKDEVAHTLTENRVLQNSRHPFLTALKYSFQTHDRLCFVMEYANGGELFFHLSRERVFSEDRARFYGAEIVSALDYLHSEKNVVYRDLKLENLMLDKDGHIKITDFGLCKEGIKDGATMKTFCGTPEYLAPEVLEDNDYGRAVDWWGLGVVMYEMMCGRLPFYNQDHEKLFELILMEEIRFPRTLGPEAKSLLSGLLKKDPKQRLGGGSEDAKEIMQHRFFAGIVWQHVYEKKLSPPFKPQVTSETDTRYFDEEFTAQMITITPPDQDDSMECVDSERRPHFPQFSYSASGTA

## GFP-Akt1 (from UniProt P31749 1-480)
  FRET efficiency (growth cone): < 1%
